Biological target: human HP1 CSDα (109–185) (human, UniProt P45973 109-185)
Experiment: other fluorescence titration

human HP1 CSDα (109–185), sequence (P45973 109-185): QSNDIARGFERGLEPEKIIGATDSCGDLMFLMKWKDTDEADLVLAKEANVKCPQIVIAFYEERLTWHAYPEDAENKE

Kd: 430 ± 100 nM
Binder: SKAGDLLFIEKVPVVVLEDILATKPSIAS (peptide, UniProt Q9QWF0 210-238, looked up) [CAF1 p150(210–238)]
